Data: patent publication EP1486506A1 (INSTITUT NATIONAL DE LA SANTE ET DE LA RECHERCHE MEDICALE …, dated 2004)

Target: T1, LexA alone (UniProt P0A7C2 1-202)
T1 construct: also called only the LexA part of the fusion protein
T1 sequence: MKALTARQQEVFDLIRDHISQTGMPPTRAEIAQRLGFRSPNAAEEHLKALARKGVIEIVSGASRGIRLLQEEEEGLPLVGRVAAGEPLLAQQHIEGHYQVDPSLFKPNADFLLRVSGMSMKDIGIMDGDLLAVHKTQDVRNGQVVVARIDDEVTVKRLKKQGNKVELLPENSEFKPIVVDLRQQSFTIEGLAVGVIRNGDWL
Experiment: yeast two-hybrid GFP reporter, flow cytometry (control, Fig. 2E)

B1: VP16-HIPK2/PEST (other)
chain: HVMRQQPTSTTSSRKSKQHQSSVRNVSTCEVTSSQAISSPQRSKRVKENTPPRCAMVHSSPACSTSVTCGWGDVASSTTRERQRQTIVIPDTPSPTVSVITISSDTDEEEEQKHAPTSTVSKQRKNVISCVTVHDSP
notes: range 789-925
- binding result: no binding
